Experimental data as given in patent US20240141048A1 (published 2024).
Substitutions are numbered along the chain they refer to. Like-named read-outs stand apart in the source and are kept apart here. Each block holds one binder with its values, some of them ahead of it.

Key:
Experiment in all cases: BLI
[1] = target: T1, His-tagged cynomolgus VISTA extracellular domain protein (in house) (cynomolgus, UniProt A0A7N9IB00 33-194)
T1 chain: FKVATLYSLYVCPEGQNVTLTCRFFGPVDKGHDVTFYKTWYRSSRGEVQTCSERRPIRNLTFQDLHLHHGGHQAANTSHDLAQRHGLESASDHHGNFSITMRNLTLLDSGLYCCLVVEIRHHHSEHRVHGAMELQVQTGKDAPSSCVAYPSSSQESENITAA

[2] = target: T2, His-tagged human VISTA extracellular domain protein (in house) (UniProt Q9H7M9 33-194)
[3] = target: T1, His-tagged cynomolgus VISTA …
[4] = target: T2, His-tagged human VISTA extracellular …; remark: listed apart in the source
[5] = target: T1, His-tagged cynomolgus VISTA …
[6] = target: T2, His-tagged human VISTA extracellular …; remark: listed apart in the source
[7] = target: T1, His-tagged cynomolgus VISTA …
[8] = target: T2, His-tagged human VISTA extracellular …; remark: listed apart in the source
[9] = target: T1, His-tagged cynomolgus VISTA …
[10] = target: T2, His-tagged human VISTA extracellular …; remark: listed apart in the source

T2 sequence (Q9H7M9 33-194): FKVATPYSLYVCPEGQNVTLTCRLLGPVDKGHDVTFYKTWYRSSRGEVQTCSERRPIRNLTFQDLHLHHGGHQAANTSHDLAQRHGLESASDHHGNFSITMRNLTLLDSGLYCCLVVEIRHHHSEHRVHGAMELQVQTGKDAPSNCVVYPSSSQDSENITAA

Kd [1]: 7.37 nM | Kd [2]: 2.45 nM
B1: anti-VISTA antibody 9F9 (antibody, V domains shown)
VH: QVQFQQSGAELARPGASVKLSCKASGYTFTGYWMQWVKQRPGQGLEWIGAIYPGDGDTRYSQKFKGKVTLTADKSSSTAYMQLSSLASEDSAVYYCARRDYGAWFAYWGQGTLVTVSA
VL: DIKVTQSPSSMYASLGERVTITCKASQDINSYLSWFQQKPGKSPKTLIYRANRLVDGVPSRFSGSGSGQDYSLTISSLDYEDMGIYYCLQYDEFPYTFGGGTKLEIK

Kd [3]: 0.00583 nM | Kd [4]: 12.5 nM
B2: anti-VISTA antibody 15D11 (antibody, V domains shown)
VH: EVQLQQSGSELVKAGASVKLSCTASGFKIKDTFIHWVKQRPEQGLDWIGRIDPANGNSKYDPKFQGKATITADTSSNTAYLQLSSLTSEDTAVYYCARWPSNWEAMDYWGQGTSVTVSS
VL: QIVLTQSPAIMSASPGEKVTMTCSASSSVSYMYWYQQKPGSSPRLLIYDTSNLASGVPFRFSGSGSGTSYSLTISRMEAEDAATYYCQQWISYPLTFGTGTKLELK

Kd [5]: 6.53 nM | Kd [6]: 0.011 nM
B3: anti-VISTA antibody 20E4 (antibody, V domains shown)
VH: QVQLQQSGAELMKPGASVKISCKATGYTFSSSWVEWVRQRPGHGLEWIGEIFPGSGSTHYNEKFKGKATFTADTSSNTAYLQLSSLTSDDSAVYYCARRPPGWFFDVWGAGTTVTVSS
VL: DIVMTQSHKFMSTSVGDRVSITCKASQDVSTDVAWYQQKPGQSPKLLIYSASYRYTGVPDRFTGSGSGTDFTFTISSVQAEDLAVYYCQQHYSTPWTFGGGTKLEIK

Kd [7]: 2.57 nM | Kd [8]: 0.00278 nM
B4: anti-VISTA antibody 16A1 (antibody, V domains shown)
VH: B3 VH with V34I, R38K, T58L, H59N, Y60F
VL: B3 VL with S30T, A84T, T94S

Kd [9]: 3.35 nM | Kd [10]: 0.00421 nM
B5: anti-VISTA antibody 17E9 (antibody, V domains shown)
VH: QVQLQQSGAELMKPGASVKISCTATGYTFSSCWIEWVKQRPGHGLEWLGEILPGSDYTNYNEKFKDKATFTADTSSDTAYMQLSSLTSEDSAVYYCARRPPGWYFDVWGAGTAVTVSS
VL: B3 VL with V33I, Y55F, Q90H, H91Q, E105D
